# From the domain aggregation screens of Martell et al. (2025)
# Experiment: soluble fraction after stress (log2 fold change); higher = more stays soluble; pooled small domains, quantitative proteomics
# Details: stress: pH 4
# Procedure, shortened: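 Values are log2 fold changes, and higher ones mean more of the domain stayed soluble. Each fold change reflects the soluble amount of a domain after acid stress and is taken as a measure of aggregation propensity. The stress was pH 4, applied to pooled custom libraries of small protein domains analysed by high-throughput quantitative proteomics.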
sequence,measurement,value
HMGISVEVPDLKNMSVAEAGSLLKNSGLSYAVVDSDYVKTISPGKILDQNPGRGLRVKKGRIVYLTINSL,soluble fraction (log2),-0.283
HMGKEIEAPDFKNMTLKEAKIAAKEYKIRIKKGDEVVSEEVEKGRIVSQDPDAGTTIKTGSTVTVNISKGL,soluble fraction (log2),0.0135
HMGPAAGVVEKYNLAHLSTGEMIRKEIAEGSDFGKMAAGIINKGELLSDEFVVALIENSIEHHKNVDGFLF,soluble fraction (log2),-0.22
HMSETVYQYVARQLRDMLGSGEIPVGQQLPTYRELAKRFQVSLSVIQRAMRQLKAEAVVSIAHGQGVKAVR,soluble fraction (log2),-0.176
HMDSNFNYELVGFRLDDMGLNSSVIVKRNNQEFVIQKGDLLENKYLLNSVTKKNINFSYLGKNYQI,soluble fraction (log2),-0.731
HMPYNNLADAPASWKKLDDTPLTLGQVNWIAKIYDALVAKGMEKGAAAGTAISRFKKSFKVADGKWVQV,soluble fraction (log2),0.173
HMLTNNYKNDKALRFAKNHGIHESNILKLVSLYENAPEKGFNAQSIAELLGITPRSASRILVKLLQHNLIR,soluble fraction (log2),0.381
HMKQPVPDEIYFKRLANATEALGRYPRASERKKFGLNMSKRRYPTLTDFINKAIELGYVEDFR,soluble fraction (log2),0.22
HMSLSIKINHESVGLRLDQFLQEHYYKQQSRSYVQHAIKEGYILVNGQSVKNGYMLKLDDLIELEAI,soluble fraction (log2),-0.166
HMGKINEIVANNIAILRKKNRLSLEELGKLSGVSKSMLALIEKGDGNPTLGILWKIANGLGVPFDELTRRP,soluble fraction (log2),0.0455
HMTTMNSADLIKELEKAGWTLRGVKGSHHIYTHPARGGHLSVPHPKKDLGAGLARQLRKQAGL,soluble fraction (log2),0.346
HMDGFAEFWSAYPKKVGKGAAEASWRKHRPPLQTVLDAVKRQAESDQWRKDGGQFIPNPATWLNQKRWEDD,soluble fraction (log2),-0.101
HMAHSDEAWSVARRVARELDKILDGAGPRRTALVRAAAELRLSTRQIYNLLARYRADRTVTSLLPRR,soluble fraction (log2),-0.353
HMKKLPDDANDIIERVSSRLAQKFRFGYHTIDDMKQQAALFAWEGIYDSWDDSRPLENFLWIHVRNRLYN,soluble fraction (log2),0.18
HMAHSWEAIRVKLQQIIDEEDKTKPLNDDQIKEKLAEAGIPNLARRTVAKYRKLLNIPTARFRKR,soluble fraction (log2),0.208
HMEYYWHQLKGLEVVNTRGESLGRVRRLLETGANDVLVLEGEQERLIPYVPDTIKQVDLAKGLIEVAWDRD,soluble fraction (log2),-1.23
HMAQSTALVNLAQAEINKRGLTQTEVQARLSEEGINVNSISPAEYPKYQKQILSILDQMQKEKQLSKEV,soluble fraction (log2),0.359
HMRPTAWEQVSRHIDQHGSIGNTEVRKAMETENVLAASKQIKKWLEQGLLIILNPTAGTRARRYSKPNM,soluble fraction (log2),-0.0247
HMEEPEFEPYVVRLTAIALNVRTGPGTQYPVAMVIRGGGAFTIVAEENGFGLLKSGAGWIMLQHTERV,soluble fraction (log2),-0.427
HMRSIVETLTDRELEIFQLIGNGFSTGEIARRLNLSPHTIETHRKNIKDKLGLSSGSELNKQAIQWVLSS,soluble fraction (log2),-1.15
HMTTIPAGRQQYILSLIRREGTVTVSRLAQELEVSELTIRRDLDQMAARNLVERTHGGATERR,soluble fraction (log2),≥ 0.43
HMGDAVSRAYFALADDLLKGELTETVSEVLIRTRYELTSAQLQAVLHRIAQEGWAHKKPGYGWEFSAMLT,soluble fraction (log2),-1.39
HMGVKIELNENEQAIFAAMQKQVEAVLPDLRAQFADMSNKAWDNSVKTLTKNNLLKVSKEAEILFIRL,soluble fraction (log2),-1.09
HMGLQRLTVSPEDAGVRIDKYLAEQLPDITRSYLQKLLKDGSVQMNGKPVKASTKTAVGAVIALTIPEP,soluble fraction (log2),-0.157
HMSKNIRQQFLDVLPKTFDRNQYLETAKKLSINAKTAEGYIKKFVEANLLDHPKHNHYINLKKVEEVETK,soluble fraction (log2),-0.0789
HMDAQNLQDQLFGFLKANPTQAYPAQTLADGLRLDDANAFTKVVQALAALERGGKVKVNEEGAFQYDAEK,soluble fraction (log2),-0.0669
HMIGTPLSEWQKDAPEEITRDQIAELVILKFVTVEQLALASDAQLQRIGMGGVGLRERAKLYLNRK,soluble fraction (log2),-0.316
HMGMDALIGRRVFVSEEILPGDTGGRMAVDGDSWRAISVGTASNIPAGTEVRIRGHQSLVLEVEP,soluble fraction (log2),-0.629
HMRQMSEELQSAKEALEDRRTQEKAVLLLMEHRNISNDEAHRLLRKLAMDQGKRLPEVARALVSMAGVL,soluble fraction (log2),-0.203
HMDGMRASDMVRAALAGAGKTQKELAEHMGWTPQNLSGRLKNNSLTFDELSKALHFAGYEVSMSDANGAG,soluble fraction (log2),-0.115
HMGYQLSLEAQSQLKALGLTSEYITRILDEADNRQPIPGTSRTVYSLNGYQVEFSHSDQQVIRIARG,soluble fraction (log2),-0.262
HMFEMPTSLVRTLSAIAIKQPVMQSEIIKLRGAGAYDHIKELIIRELVHRKEEGRSPILTTTKKFQEYFRL,soluble fraction (log2),-0.948
HMATKVSSGATVRDVADLLGLSSAELIKKLMMMGEMATLTQTLTDESIKSIADEYDRKIEIVSAAE,soluble fraction (log2),-1.22
HMFIEPPSLEELERRLRGRGTETDDVVDMRMRTALVELSQKMEYDYRLVNDDLDEATRQLVAYVNEIAEQ,soluble fraction (log2),-0.679
HMTDSSEILEAALKEAEDAAHEVLNGTFSVQLEPQKAYIRRLQHMLIDRMNLSSTSKGKEPYRSLLVYR,soluble fraction (log2),-0.601
HMVEVPKVAGMSTAQGVSELEQKGFVVNRTESYDDTVPKGNIISQTPEGGTKVPSGSAVTIKISQGAE,soluble fraction (log2),-0.0558
HMFPDRLRELRKGRNITLETLAEEMNKHLEPGQKPNTAAQIGNWERGDRSPSYIEVRKLADFFNVSMDFL,soluble fraction (log2),-0.512
HMNKSEFLNELEKRIRVLEKNEIKDILAEYSQHIDMRMGSGLSEAEAIKDFGDMDDLAAEILEAY,soluble fraction (log2),-0.436
HMARHIHFEVHVQQAGRWSIHAQFGAGQREKAIEEAKKIEKTPGFDSVKVVKETYDSDLGNHQDTTIYRGP,soluble fraction (log2),0.0508
HMGGYLIGDVAQMVGLSRDALRFYEKKGIIRADKKENGYRYYSEDDIYRLMYILYHRKMNTSLEEIGGLMS,soluble fraction (log2),-0.478
HMDNVINDGMQVRFTGNVDINGTPLKIYDRIYTAEGISDDTVVLMLGNDVYARVYLSDVVPAD,soluble fraction (log2),-0.275
HMVAGPDEPLSDREQGVLDLLAEGLSNKAISKQLGISVATVKSHLSNIYGKLQAENRMQAVARARELGLM,soluble fraction (log2),-0.386
HMAPDAPDGFVHRWIRAEMLGQEDKSNVHRRMQEGYELVRADEYPDSDLPVAEGRYAGIIGVGGLLLARF,soluble fraction (log2),-0.268
HMNVNALIGQEGIVIKEINSGSNKIGQVKISGDTWSAVTTNDFTNAIPVGSNVKILKIDGVNLIVEPVY,soluble fraction (log2),0.207
HMQTAAANPSPESILQAREAAGLSQSEAGALIYSGLRSWQHWEWGTRRMHPGLFELFLKKTGQI,soluble fraction (log2),-1.02
HMPPELSDEVMEEAMSYLKNQYLNHGVKLEDYPALNKLFVDEAFRSEVIRKTQSNYKISYQSAMASLD,soluble fraction (log2),-0.928
HMKVIAEESYRILVDAIEKLPPQMKSIMQLALEGKSNPEIAETLNISGETVHSQKKIAYRKLRVYLKD,soluble fraction (log2),-0.144
HMPANVELLRTFTNKTGTKIKARIVAVSDNKVKLIRDDSKKFIVPIDSLSEEDQKYLKDWIANEVGEQ,soluble fraction (log2),0.133
HMNSNLSLTSYEEKIFFLLEKEKNLDELILESSFKAGEILSILMDLEIKHAIVSIPGGKYRRK,soluble fraction (log2),-1.32
HMVSVPDIGEKLPDFTGTPKRLLTPLLNKNDVNIIIKGDGWVVSQKPPAGTPVTKGMTIEFTL,soluble fraction (log2),-0.0317
HMKYSNDEVERDLYVRGVIYQIGDLVENKLDGTSGEVVRRGPNYVQYTDGENFYKAFLSALQEQK,soluble fraction (log2),-1.04
HMDPSVTGLLTRLGISPQTAQELAGQYEEPYILEKIAIVEAHPEYVKNAAGFVITALQEDWKD,soluble fraction (log2),-1.37
HMKRREENLRRLALSTAERVKRKGKKEILNPMSPQERRIIHLTLQNNKEVVTHSEGEDPYRRVIISPRN,soluble fraction (log2),0.311
HMSTIKEKIIQYLDFKGISKYDFYQKTGVSNGVLSQKSGMSEDNIMRFLSYYDDINTDWLFYGKGEMIKT,soluble fraction (log2),-1.37
HMTKEEFLDEIKKELGFMPYEEVIKAEKYFESYFNGSEADEKVIERFGSPKYAAQNYYRTHVAN,soluble fraction (log2),0.0371
HMKAEKEIEKIKFTIYNEFKRKQEENHFLPPWDGTKMLRQFVLGVVANNPKYQHVNTDILYRDLLLLYYQ,soluble fraction (log2),-0.166
HMAVNQEFKNTINRIKYEYSLNQSQIADRLGVKKTYLSDMINGRVPYNETMNKKVNDVFPLPP,soluble fraction (log2),≥ 0.43
HMPTERLSMRRIRELLRLRFEVGLSTRLIATALGISKGAVGDYLQRAQVAGLGWPLPENLNDAALERRLFP,soluble fraction (log2),≥ 0.43
HMGIGSTLTDGVRVYASDDEIVVNAPAESDVRIFNAGGAQLYAGRVADVRVAVAKGLYVVTVDGRSTKITV,soluble fraction (log2),0.217
HMKHFTYEEMELMSIYDPGTREGLIANLEEMRGYLEPDETELRELTDSALEKLRELSDADYEQLELI,soluble fraction (log2),-1.48
HMGAQPLIEPLSERELEVLALIAEGLTNAEIGRRLFIATGTVKRHVNTIYGKLDVHGRIEAIARARDLHLI,soluble fraction (log2),-0.66
HMGMTTSILDDVIGMGPKRKKALLKAFGSFGALRNATLEEIKQTHTVPEQVAEDVYAVLVQYNSKSE,soluble fraction (log2),-0.171
HMEDKIIVTVPGEYHLERIDRFLAANLEEDLSRSLIQRYIRENLITVNGEAVRANYKVKTDDEILITFPQ,soluble fraction (log2),-1.04
HMQTYNQLKRGMTEWIQAGQKQKAYELFAGVAGQLSLSSAAGKKQYNELVTILNRAGFGIPLE,soluble fraction (log2),≥ 0.43
HMSELDASYLGQRVRYVSGFTETDPSEGLVEFRGSNWRARAEHPPLDHSGHWVIVKVESNTLWVEEKSN,soluble fraction (log2),0.0761
HMTFENMFIENSGETLDREFLVENLRGISWQSYDRSVDVLVSRLRGKLGETPNNTRFIKTIHGVGYKFIGE,soluble fraction (log2),-0.472
HMKEPIYQTILSALILELNTNHFRKNDPFYSESELRKKYQVSSTTVVRVLNMLADQGYIYRIQGKGSFVSK,soluble fraction (log2),-0.5
HMGDLKSLIQATMDDAGISIKPDAMDYLISHLGSDRLTTRAELDKLILYAGADDKLDLDSVVELVG,soluble fraction (log2),-0.794
HMGESEWIVKWRGEKRDEERLQESELVRDDPEHRISVVRPRDDVDASAWLNRWRKSRYVQYIQPNHRVTIS,soluble fraction (log2),0.0349
HMSSEASALRGWLQTSQYQGSVTLFANALNVPLKTVEDWVYGRSKPSLQHWSQLYEATGLPEYQQ,soluble fraction (log2),0.0888
HMLGDAVLRQVLETIPEDPAVDYLELRRNTGMTEADLDRVLADLENLGVINKKRTVEQVLYWRT,soluble fraction (log2),-1.44
HMPSSFLVKVTADALNIRSGPGVANRITGTIKDKGTYTIVDTKDDWGKLKSGVGWIHLGYTKRLD,soluble fraction (log2),0.0923
HMGGVTVQNRETHVNSTVNVRSEQTTESERVALAYQGDAITQIESYENGWSKVEYKGLSGYVMTEYL,soluble fraction (log2),-0.819
HMSSTPEPPQAVLDLVNLREQARAGKDWTQSDAFRQQIAALGWTVKDTKDGPVVSLSPTTTE,soluble fraction (log2),0.105
HMDRSVTAAELRLAAMDLLARREHGSQELEAKLSRRFHKRHYDVELLRSVIEQLTVEGLLSDERFAVS,soluble fraction (log2),-1.07
